# In PMC9938897, “CvkR is a MerR-type transcriptional repressor of class 2 type V-K CRISPR-associated transposase systems”:
# Numbering of substitutions follows the chain as printed.
# B1: Pwt (dsDNA)
# DNA 1: TTGTATAACATTATGTGTTTTGTATGGTATTTT
# DNA 2: AAAATACCATACAAAACACATAATGTTATACAA
# B2: Pcas12k (dsDNA)
# DNA 1: AAGAAACATCCTATAGAAGCATCTTCTAAAACACATTAGTGCTTTGTATAACATTATGTGTTTTGTATGGTATTTTATTTTTA
# DNA 2: TAAAAATAAAATACCATACAAAACACATAATGTTATACAAAGCACTAATGTGTTTTAGAAGATGCTTCTATAGGATGTTTCTT
# B3: PtnsB (dsDNA)
# DNA 1: AAAGGTTTTGTATATTTTCATAATGACAAATTGACTGTCGTTTTCTCCACGTTTAGAATAACATTATGTATTTATAAATT
# DNA 2: AATTTATAAATACATAATGTTATTCTAAACGTGGAGAAAACGACAGTCAATTTGTCATTATGAAAATATACAAAACCTTT
# B4: Ptracr (dsDNA)
# DNA 1: TTAGCCCTCTATGCTTATAGTCTCCGCCTAGCTAGGCGAAGTTGACAAACATCTGAACCTTGAAAATATAATATGTAATA
# DNA 2: TATTACATATTATATTTTCAAGGTTCAGATGTTTGTCAACTTCGCCTAGCTAGGCGGAGACTATAAGCATAGAGGGCTAA
# B5: PpsbAI (dsDNA)
# DNA 1: GGAATAATTAACATTAAGAATTATTAATTCATGGGTTTTTAGTCTAGTAAATTTGCGTGAATTCATGTAAATTTTATGAG
# DNA 2: CTCATAAAATTTACATGAATTCACGCAAATTTACTAGACTAAAAACCCATGAATTAATAATTCTTAATGTTAATTATTCC
# B6: P43 (dsDNA)
# DNA 1: TGCTTTGTATAACATTATGTGTTTTGTATGGTATTTTATTTTT
# DNA 2: AAAAATAAAATACCATACAAAACACATAATGTTATACAAAGCA
# B7: P45 (dsDNA)
# DNA 1: TAAGAAACATCCTATAGAAGCATCTTCTAAAACACATTAGTGCTTT
# DNA 2: AAAGCACTAATGTGTTTTAGAAGATGCTTCTATAGGATGTTTCTTA
# B8: Pcas12kcenter (dsDNA)
# DNA 1: CTAAAACACATTAGTGCTTTGTATAACATTATGTGTTTTGTAT
# DNA 2: ATACAAAACACATAATGTTATACAAAGCACTAATGTGTTTTAG
# B9: PtnsBcenter (dsDNA)
# DNA 1: TTTAGAATAACATTATGTATTTATAAATTACCTTTGTTTCA
# DNA 2: TGAAACAAAGGTAATTTATAAATACATAATGTTATTCTAAA
# B10: P15-5 (dsDNA)
# DNA 1: B1 DNA 1 with T12A
# DNA 2: B1 DNA 2 with A22T
# Biological target: CvkR R42E (Anabaena sp. PCC 7120, UniProt A0ACD6B984 19-168, R60E)
# Sequence (A0ACD6B984 entry or part of it R60E | R42E R42E): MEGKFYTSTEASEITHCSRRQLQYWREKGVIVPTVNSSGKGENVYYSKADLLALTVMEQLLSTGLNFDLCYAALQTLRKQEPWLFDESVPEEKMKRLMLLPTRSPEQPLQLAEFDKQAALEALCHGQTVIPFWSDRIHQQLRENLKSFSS
# Assay: EMSA; EMSA: 10 mM Tris-HCl pH 8.0, 25 mM MgCl2, 50 mM NaCl, 1 mM DTT, 1 mM EDTA, 50 ug/mL poly(dI-dC), 0.01% NP-40, 10% glycerol, 2 nM probe, 25 C 30 min; footprinting: 50 mM Tris-HCl pH 8.0, 100 mM KCl, 2.5 mM MgCl2, 0.2 mM DTT, 10% glycerol, 2 ug salmon sperm DNA, RT
# Details: protein: recombinant; tags: 6xHis-SUMO removed by Ulp1; chain copies: 2; label: 5'-biotin; blunt
row,Binder,binding result
1,B1,no binding

# Biological target: T1, CvkR (Alr3614) (Anabaena sp. PCC 7120, UniProt A0ACD6B984 19-168)
# T1 sequence (A0ACD6B984 entry or part of it): as the sequence (A0ACD6B984 entry or part of it R60E | R42E R42E) above, with E42R counted along it
# Assay: as above
# Details: protein: recombinant; tags: 6xHis-SUMO removed by Ulp1 (BamHI site; possible vector residues at N-term); chain copies: 2; label: 5'-biotin; blunt
row,Binder,binding result
1,B2,binds
2,B3,binds
3,B1,binds
4,B4,no binding
5,B5,no binding
6,B6,binds
7,B7,no binding
8,B8,binds
9,B9,binds

# Biological target: CvkRmut (Anabaena sp. PCC 7120, UniProt A0ACD6B984 19-168, R37A;R38A;Q41A;K58A;R60A;N84A)
# Sequence (A0ACD6B984 entry or part of it R37A;R38A;Q41A;K58A;R60A;N84A): as the sequence (A0ACD6B984 entry or part of it R60E | R42E R42E) above, with R19A, R20A, Q23A, K40A, E42A, N66A counted along it
# Assay: as above
# Details: protein: recombinant; tags: 6xHis-SUMO removed by Ulp1; chain copies: 2; label: 5'-biotin; blunt
row,Binder,binding result
1,B1,no binding

# Biological target: T1, CvkR (Alr3614)
# Assay: EMSA; no effect of mutation; EMSA: 10 mM Tris-HCl pH 8.0, 25 mM MgCl2, 50 mM NaCl, 1 mM DTT, 1 mM EDTA, 50 ug/mL poly(dI-dC), 0.01% NP-40, 10% glycerol, 2 nM probe, 25 C 30 min; footprinting: 50 mM Tris-HCl pH 8.0, 100 mM KCl, 2.5 mM MgCl2, 0.2 mM DTT, 10% glycerol, 2 ug salmon sperm DNA, RT
# Details: protein: recombinant; tags: 6xHis-SUMO removed by Ulp1 (BamHI site; possible vector residues at N-term); chain copies: 2; label: 5'-biotin; blunt
row,Binder,binding result
1,B10,binds
